# “Also recorded” adds a separate entry of the source. Where two headings read alike, the source gives them in different places.
# B1: Antisense-5: input RNA, SEQ ID NO: 8 (nucleic acid)
# antisense: TGTGCTCGCTTCGGCAGCACATATACTAACATTGGAACGATCCTGCAGCTTGAGCCATTCACCTGGCTAGGGTTACATTCCATATTGATGGTGACCCTGGCTGGGGGTTGAGACAGCCAATCCGCCGCTCACCTGCCGCGCTCCAGGCGGCGCTCCCCGCCCCTCGCCCTCCGCCAGACAGGAGTGAGAGATGGAAGCTCGCGCCTACTC
# B2: Antisense-TMPRSS2-ETV1-A1: input RNA, SEQ ID NO: 34; antisense RNA designed to target stem TMPRSS2-ETV1-A (nucleic acid)
# antisense: TGTGCTCGCTTCGGCAGCACATATACTAACATTGGAACGATCCTGCAGTGCCGCATTATGTAAATCGTTCCAAGTTAAAGTCTTAGTTAGATTCAGTAGACTAGGAGCCAGCTTTGGGGACCCCGGGGGACTCTCTTCCACCAACTGG
# B3: JS-8: chimeric RNA, JAZF1-SUZ12, GC content 27% (nucleic acid)
# chain: TCAACAAAAGAACTATTGATTGATGCCAAACAAGATGAAAATTTCACTTTGCGTATTAGTTACCAAAGGTTTATTTATGTTTCTGTAATGCATATTTATA
# modifications: chimeric RNA, chemistry not given here
# B4: S1-7: chimeric RNA, BCR-RANGAP1, GC content 48.4% (nucleic acid)
# chain: AGAATATGTGTAATTGTGTTACCAGCCTTCACTGTTCTGACAGCTCCAGTAGCTGGGGGAGACC
# modifications: chimeric RNA, chemistry not given here
# B5: S4 30-2: chimeric RNA, BCR-KCNQ2, GC content 55.4% (nucleic acid)
# chain: GAGATCGAGACCATCCTGGCTAACGCAGTGAAACCCCGTCTCTACATTACCAGCCTTCACTGTTCTGACAGCTCCAGTAGCTGGGGGAGACC
# modifications: listed as DNA, further chemistry not given here
# What was measured:
# [1] = test system: TMPRSS2-ERG fusion
# [2] = test system: TMPRSS2-ERG genomic breakpoint; assay type: cell-based, human
# Protocol: (§1) Nested long-range PCRs according to the manufacturer's protocols using LA PCR kit (Takara, #RR002M). 200 ng of genomic DNA was used in each reaction and PCR was performed with annealing and extension at 68° C. for 20 minutes. 1 μl from the above reaction (1st round PCR) was used as template for the 2nd round PCR.
# For the genomic breakpoint identified in this manuscript, 1st round long range PCR was done using primers TMPRSS2 genomic bk-F1 and ERG genomic bk-R1 shown in primer list below. 1 μl from the above reaction (1st round PCR) was used as template for the 2nd round PCR using inner primers TMPRSS2 genomic bk-F2 and ERG genomic bk-R2.
# [3] = RT-PCR detection of input RNA in propagated/enriched LNCaP population; assay type: cell-based, human; settings: enriched LNCaP population
# Protocol: FIG. 18. Procedure used to propagate and enrich the induced LNCaP population for 52 days in the absence of DHT. LNCaP cells were transfected on day 1 with antisense-5 and incubated for 3 days with DHT. Cells were then divided into sub-populations. Half of the cells from each sub-population were harvested for RT-PCR assays to detect the induced fusion transcript whereas the other half was used to propagate the population. […] The process was continued for 52 days.
# [4] = test system: ERG mRNA
# [5] = test system: TMPRSS2-ERG fusion; assay: RT-PCR detection of induced endogenous TMPRSS2-ERG fusion transcript in LNCaP cells expressing input RNA; settings: for induction of endogenous TMPRSS2-ERG fusion transcript (RT-PCR): LNCaP cells transfected with input RNA plasmid, DHT for 3 days; for TMPRSS2-ERG fusion, specificity of input RNA: three-round nested PCR (FIG. 4C)
# Protocol: LNCaP cells were cultured in this special medium for 24 hrs prior to plasmid transfection.
# Transfection was performed using Turbofect transfection reagent (Thermo Scientific, #R0531) according to manufacturer's protocol. Briefly, 1 μg of a particular plasmid was first diluted in 100 μl of the serum-free DMEM followed by immediate mixing by pipetting. 4 μl of the transfection reagent was then added to the diluted DNA followed by mixing and incubation for 20 min. The DNA/transfection reagent mixture was then added drop wise to a well containing LNCaP cells in 1 ml medium.
# For treating cultured cells, concentrated DHT stock was diluted as 10× working solutions (for example, for 0.9 μM final concentration, 10× is prepared as 9.0 μM) with the appropriate complete culture medium and used immediately. […] Six hrs post transfection, 111 μl of fresh 10× DHT working solutions was added to each well of 12-wells plate containing 1 ml medium and transfected cells.
# Briefly, cells were suspended in 200 μl of PBS buffer and were then lysed with 400 μl of lysis buffer. The sample was then passed through the filter assembly resulting in the binding of the nucleic acids to the filter. The filter containing nucleic acids was then incubated with DNase I dissolved in DNase incubation buffer to degrade genomic and plasmid DNAs. The column was then rinsed with wash buffer and total RNA then eluted in a new tube for further analysis.
# After the addition of dNTPs, the mixture was denatured at 65° C. for 5 minutes. This was followed by the addition of a master-mix containing 1× superscript buffer, 10 mM DTT, 5 mM Magnesium chloride, RNaseOUT and Superscript III reverse transcriptase. Reactions were carried out at 50° C. for 50 minutes and then terminated by incubation at 85° C. for 5 minutes. cDNA was then treated with RNase-H for 20 minutes at 37° C. to degrade RNA in DNA/RNA hybrid. 1 μl of cDNA was used as template for each subsequent PCR reaction.
# The Denaturation, Annealing and Extension steps were performed 32 cycles for induced fusion RNA and 27 cycles for input RNA.
# [6] = test system: TMPRSS2-ETV1 fusion; assay: RT-PCR detection of induced TMPRSS2-ETV1 fusion transcript in LNCaP cells; assay type: cell-based, human; settings: for TMPRSS2-ETV1 fusion, specificity of input RNA: three-round nested PCR (FIG. 4C)
# Protocol: • 1st Round: Top down PCR with TMPRSS2 ex-1 F1 and ETV1 ex-6 R1 • Denaturation 94° C., 30 sec • Annealing * , 45 sec • Extension 72° C., 60 sec
# The Denaturation, Annealing and Extension steps were performed 2 cycles. • 2 cycles at each temperature: 62° C., 61° C., 60° C. . . .
# Long Range PCR for Detecting Genomic DNA Fusion Junction
# [7] = test system: TMPRSS2-ETV1 fusion gene; assay: FISH with 3D image reconstruction, co-localization of TMPRSS2 and ETV1 in enriched LNCaP population; assay type: cell-based, human; settings: 30 out of 3301 cells
# Protocol: Enriched population carrying TMPRRS2-ETV1 fusion events were first grown on 18 mm round #1 coverglass in a 12-well cell culture plate at the initial density of 200-400 k/well. Cells were then fixed with 4% (vol./vol.) formaldehyde followed by denaturation of DNA with 0.1 N HCl for 5 min and with 70% formamide at 85° C. for 7 min. Hybridization of target DNA with probes were done at 37° C. for 16 hr in a humidified chamber. Cells were then washed, stained with DAPI and imaged with microscope. FISH probes for TMPRSS2 (RP11-35C4, red) and ETV1 (RP11-769K2, green) were purchased from Empire Genomics.
# [8] = test system: TMPRSS2-ETV1 genomic breakpoints; assay: Genomic PCR of TMPRSS2-ETV1 genomic breakpoints in enriched LNCaP population; assay type: cell-based, human; settings: enriched vs untransfected LNCaP cells
# Protocol: as §1
# [9] = test system: JAZF1-SUZ12 fusion; assay: Nested RT-PCR of induced JAZF1-SUZ12 fusion transcript in 293T cells; assay type: cell-based, human
# Text: FIGS. 39A-39D. RNA-mediated inter-chromosomal JAZF1-SUZ12 fusion in 293T cells. FIG. 39A. The design of chimeric RNA is based on the three-way junction that could be formed between genomic DNA (in the stem) and chimeric RNA (perpendicular and below the stem). The three-way junction comprises an RNA/DNA hybrid and a genomic DNA stem between the parental genes (JAZF1 and SUZ12). The sense genomic strand of JAZF1 gene is on the negative strand of chromosome 7 while that of SUZ12 is on the positive strand of chromosome 17. Short vertical lines in gray regions between the chromosome and the chimeric RNA represent base pairings. FIG. 39B. […] This chimeric RNA target intron regions and has GC content of 27%. The fusion RNA transcribed from the induced fusion gene contains an annotated splice junction. In this particular case, two different fusion RNAs were confirmed based on the results derived from the Sanger sequencing data. FIG. 39B discloses the JAZF1 targeting sequence as SEQ ID NO: 236, the SUZ12 targeting sequence as SEQ ID NO: 237, and the chimeric sequence as SEQ ID NO: 238. FIG. 39C. Example of inter-chromosomal JAZF1-SUZ12 fusion transcript (arrow) induced by sequence-specific chimeric RNAs in 293T cells without additional hormone or other stimuli. 293T cells were transfected with chimeric RNA expression plasmid. Total RNA was then harvested at day 3. […]
# [10] = test system: BCR-RANGAP1 fusion; assay: Nested RT-PCR of induced BCR-RANGAP1 fusion transcript in 293T cells; assay type: cell-based, human
# Text: FIGS. 40A-40C. RNA-mediated intra-chromosomal BCR-RANGAP1 fusion in 293T cells by designed chimeric RNA. FIG. 40A. The design of chimeric RNA is based on the three-way junction that could be formed between genomic DNA (in the stem) and chimeric RNA (perpendicular and below the stem). The three-way junction consists of an RNA/DNA hybrid and a genomic DNA stem between the parental genes (BCR and RANGAP1). The sense genomic strand of BCR gene is on the positive strand of chromosome 22 while that of RANGAP1 is on the negative strand of chromosome 22, separated by 18 Mb. Short lines in gray regions represent base pairings. FIG. 40B. […] This chimeric RNA target intron regions and has GC content of 48.4%. The fusion RNA transcribed from the induced fusion gene contains an annotated splice junction. FIG. 40B discloses the BCR targeting sequence as SEQ ID NO: 239, the RANGAP1 targeting sequence as SEQ ID NO: 240, and the chimeric sequence as SEQ ID NO: 241. FIG. 40C. Intra-chromosomal BCR-RANGAP1 fusion transcript (arrow) induced by sequence-specific chimeric RNA in 293T cells without additional hormone or other stimuli. 293T cells were transfected with chimeric RNA expression plasmid. Total RNA was then harvested at day 3. Nested RT-PCR using specific primer pairs were used to detect the induced fusion transcript. […]
# [11] = test system: BCR-KCNQ2 fusion; assay: Nested RT-PCR of induced BCR-KCNQ2 fusion transcript in HL-60 cells; assay type: cell-based, human
# Text: FIGS. 41A-41D. RNA-mediated inter-chromosomal BCR-KCNQ2 fusion in HL-60 cells by designed chimeric RNA. FIG. 41A. The design of chimeric RNA is based on the three-way junction that could be formed between genomic DNA (in the stem) and chimeric RNA (perpendicular and below the stem). The three-way junction consists of an RNA/DNA hybrid and a genomic DNA stem (black) between the parental genes (BCR and KCNQ2). The sense genomic strand of BCR gene is on the positive strand of chromosome 22 while that of KCNQ2 is on the negative strand of chromosome 20. Short lines in gray regions represent base pairings. FIG. 41B. […] This chimeric RNA target intron regions and has GC content of 55.4%. The fusion RNA transcribed from the induced fusion gene contains an annotated splice junction. In this case, two different fusion RNAs were confirmed based on the results derived from the Sanger sequencing data. FIG. 41B discloses the BCR targeting sequence as SEQ ID NO: 242, the KCNQ2 targeting sequence as SEQ ID NO: 243, and the chimeric sequence as SEQ ID NO: 244. FIG. 41C. Two BCR-KCNQ2 fusion transcript variants were induced in HL-60 cells by chimeric RNA targeting BCR and KCNQ2 genes in the genome without hormone or other stimuli. FIG. 41D. Schematic of induced BCR-KCNQ2 fusion transcripts derived from the Sanger sequencing data. […]
# [12] = 293T, day 3, without hormone or other stimuli
molecule,measurement,setting,value
B1,Cell line(s) identified,[1],PNT1A
same,"genomic TMPRSS2-ERG fusion band (~862 bp, primer pair A/D)",[2],present only in the enriched LNCaP population
same,time after transfection until which transiently expressed input RNA is present (RT-PCR),[3],≤ 17 days
same,endogenous ERG mRNA (RT-PCR),[4],not detected
same,endogenous ERG mRNA (three-rounds of nested RT-PCR),[4],not detected
same,induction of endogenous TMPRSS2-ERG fusion transcript (RT-PCR),[5],clear induction
same,induction of endogenous TMPRSS2-ERG fusion transcript (RT-PCR),[5]; listed as antisense-5,peaked; also recorded: sufficient to induce TMPRSS2-ERG gene fusion
same,lowest DHT concentration at which fusion induction occurred,"[5]; LNCaP, 3 days, three-rounds of nested PCR",20 nM
same,"TMPRSS2-ERG fusion, specificity of input RNA",[5]; LNCaP,induced TMPRSS2-ERG fusion
same,persistence of induced TMPRSS2-ERG fusion transcript,[5]; enriched LNCaP population propagated in absence of DHT and input RNA,≥ 52 days
same,Cell line(s) identified,"[5]; fusion gene partners TMPRSS2-ERG, LNCaP","LNCaP,"
same,induction of TMPRSS2-ERG fusion after transfection of digested plasmid fragments,[5]; plasmid cut SacII/KpnI or SacII/PstI,induced only when the U6 promoter was attached to antisense-5 sequence
same,"TMPRSS2-ETV1 fusion, specificity of input RNA",[6]; LNCaP,not TMPRSS2-ETV1 fusion
B2,time after transfection until which transiently expressed input RNA is present (RT-PCR),[3],< 47 days
same,cells positive for TMPRSS2-ETV1 fusion gene by co-localized FISH signals,[7],Approximately 0.9%
same,"genomic TMPRSS2-ETV1 fusion bands x, y, z",[8],present only in the induced and enriched LNCaP population
same,"TMPRSS2-ERG fusion, specificity of input RNA",[5]; LNCaP,not TMPRSS2-ERG fusion
same,"TMPRSS2-ETV1 fusion, specificity of input RNA",[6]; LNCaP,induced TMPRSS2-ETV1 fusion
same,induction of TMPRSS2-ETV1 fusion transcript (RT-PCR),"[6]; LNCaP, two-round nested PCR",clear induction of the TMPRSS2-ETV1 fusion transcript; also recorded: led to induced fusion transcript
same,persistence of induced TMPRSS2-ETV1 fusion transcript,[6]; enriched LNCaP population post initial treatment,≥ 47 days
same,Cell line(s) identified,[6]; fusion gene partners TMPRSS2-ETV1,LNCaP
B3,induction of JAZF1-SUZ12 fusion,[9]; [12],induce JAZF1-SUZ12 fusion
same,Cell line(s) identified,[9]; fusion gene partners JAZF1-SUZ12,293T
B4,induction of BCR-RANGAP1 fusion,[10]; [12],induce BCR-RANGAP1 fusion
same,Cell line(s) identified,[10]; fusion gene partners BCR-RANGAP1,293T
B5,induction of BCR-KCNQ2 fusion,"[11]; HL-60, nucleofection, day 7",induce BCR-KCNQ2 fusion
same,Cell line(s) identified,"[11]; fusion gene partners BCR-KCNQ2, HL-60",HL-60

# From patent US12180473B2, “Chimeric RNA-driven genomic rearrangement in mammalian cells” (priority 2018, dated 2024)
